Measured values as given in the DeepSol protein solubility set.

experiment: soluble on expression in E. coli; label from the status in PepcDB or PDB records

Row | Sequence | soluble on expression in E. coli
1 | MGSDKIHHHHHHMIEPVSEDTILITLAPAIDDTLPARIASLVDSIRRAGFHWLVDMVPSYTTLMVVYDPVLVDFRQVTDKLRPIVHRLSTQGHTAELKSRLVELPVYYSAETGPDLQWLATESGLDCEEVIRRHSSVEYRVHALGFAPGFAFMGQVDPSIAAPRKTTPRKQVPAGSVGIANRQTAVYPQVSPGGWQLIGRCPTRLFDSTNLSLLKVGDRVRFTPISREAFLAAGGELIS | not soluble
2 | MGSDKIHHHHHHMIGEKIISFESIDSTNRFLKENYRFYPDGTVVVALEQTSGYGRSGRHWHSPKGGLWFSVLFKPRKPLELSFYTRVFSVAVVKTLENMKIHANIKWPNDVYINGRKLAGVLSEGIFEGAKPLAVVVGVGMNVNNEIPAELKTRAISLKEIMGKEISIVKLMESMLKNARVIFRKYSRKKEALTRIWKRYLLQKEGDLISLEGKKGKIVKINPDSLLIDFDGEIKKVYSLSPH | not soluble
3 | MGSDKIHHHHHHMIGRKRKYEDPHIRSFHELLSGHNPVLYKKEDLLAYDCDGFTIHKHLPKAVVFPENTREVASIVRYCHDHNLPFLARGAGTGLSGGAIPINGEVIISLVRMKRLLEVDLKNRRAIVEPGYVNLKLTQSIEDKGYYYAPDPSSQYCCTIGGNVAENAGGAHCLKYGVTTNHILGMEVVLPNGDIVEIGKAGILDEPGYDLLGLMTGSEGTLGIVTKITVRILKHPEAKQTVLAYFDKVSDASHTVSDIISEGIVPAALEMMDRIAMEGVEAAAFPIGHLLDAEAVLLIEVDGISAGMDQQIERILTVCRKHHVREVKDEMVGEPKNRLWCHGCHLTRLPRTRWSDPADKASGRAFNDSKNQRNIRATNRKYFSRR | not soluble
4 | MGSDKIHHHHHHMIIDEISLFILDMDGTLTLEPSSWDYVHRRLGINNHSVTRLYRNRYINYYCFFQSDIKAWLHKYPNLKKEKVVEFLREVPIRHGADELINVLRKNGIRTAVISGGISWLFDIISERSKIDYNFSNEIFTDEYGYIVPEGKVRVIPEEKDLVVRKIQEELGIGKDQTASVGDEMENDRIHRYSKYRFIISKKARDNLIPIPSGDLEDLLRILE | not soluble
5 | MGSDKIHHHHHHMIILGIHDGHDAGAVLLNDEEIYAVNEERLNRVKKYRGFPELSIRKVLEMSGTEPDDVDVIAIAGLFRRQKRLLELEHKLKSIFGPKFKEKAIFVEHHLAHASSAYYSSGLRDAVVLTIDAAGDGLSSTVSIAKDGQMFRIAQSTYIDSLGDFYASVTELLGFKPMRHEGKVMSLAAYGNPRYELSAIIELNGLTFENKLKVIGTEATKKLAEFFEFPLEKAKEVSSNLKRGIMDNELEKKAIEIAASAQAHLERLIEEMGLELKKYELPIAYAGGVAQNVKANAILRRIFGDIWIFPAMDDAGLAFGAAIYVKAQMELLFGKWKPFKLKHVFLGPSYSPEEIEEILKREGLEYEEVDVPSFVADSLVEGKLVGLFQGRLEYGPRALGNRSILADPRNEKVREKLNLALRRDVFQPFAPSILEERFPDYIEDLTGEPNRFMTMSYLASEEFMEVAPAVVHIDGTTRPQSVPKDLGTYYKIIRRFEKRTGVGAVLNTSFNMHGEPIVCSPLDAIRTAKSAKLDVLLLERFGVYIV | not soluble
6 | MGSDKIHHHHHHMIIPHRKPCIESQIKTSGNLDELKMIINDLLYSEKEIQILPSGNSAIHIASEIVSKLNPNSKTLIPDMGGWKGFETYSKLSGLSIEKLKTNLGVVNLEILEEKIKECSAKSLFLTSLAGYLAEQPLKEIAKICSENDCLFIEDVSGKIGGDCGYGDMVVCSTGSPKIINCEYGGFLGFSKKINENLKDKHLKEDIKNLLKTYKMPDIYGKMIEETLISKKSYELCIKFSNIVKENMENAYFKDSQGVSVFLSYENPKEIAKNIDKSVKLNNGKSILTMCPLYERILRKGVVLEIKKMDIHKISENEIYEILNFF | not soluble
7 | MGSDKIHHHHHHMIIRAGYNIAFQCFQETPINLLLSVHPSRAQHVIGEHVIKFSPDVPSHDFTDMFGNVCTRIVAPAGRIDISNDFLIEDTGLPDEVAPGAREIPVAELPDEVMVYLLGSRYCDTDKLATLAWSMFGGIPSGWQRVQAIVDYVHNHITFGYQFARNDRTASEGHAEQIGVCRDFAHLAVTLCRCMNIPARYCTGYLGDIGVPQDPAPMDFSAWFEVYLDGRWYTFDARHNHPRIGRIVIARGRDAADVAISTSFGTANLLNFEVITHEVTDQAAVTDARLQKVA | not soluble
8 | MGSDKIHHHHHHMIKALNIVTKTGTELQGALFKAAHATTVLIAITGVHGNFYSNPFYVNIGKTLMAAGIDFIYAQTRDAFNQVVSLNHLTGKKELVGSWSEQFDDANEDIAAYLSYAEENQYQHIILGGHSLGANKVIYYLANHADVNVTKFLLLSPANLKRLTDMVSLSERNIIQKQIAAGNSNQLLPFELFGWLPCTAKTADQWLNSGILDNVHSDLRADFSQIERIRLSGAMVIGTLDTFTYGDPIKYLKTINAHFLSHAENDLVFIQKTGHTYQNKDQKLANEILKLIKNWSLGGN | not soluble
9 | MGSDKIHHHHHHMILDPILDMFRGKAVTIPPLDGAFRPNTRLDDAPTFAELTEPDNLLADGGRLLATSGNAIYSLAAGAEPKVIETFPSPITAQALAPSGDLTVALESGKLLTSGKEVSLPADLSCITALAYAEDGTLWLANGSAEHAPSQWAADLMKKGASGSLWKRDATGGAFRKVAGALAFPYGLLPLGGDVLVSESWRHQLIRFDGATGNRSTVLTHLPGYPARLASAGDGGAWLALFAPRNRLIEFVLQETHYRQDMIDQVPPAYWIAPALASNRSFLEPLQCGGIRTMGIHKPWSPSRSYGLVVRLDARMQPQFSLHSRANGTRHGICSVVEKAGRLFIASKGGDCVLDAGGF | not soluble
10 | MGSDKIHHHHHHMILDTAPHISSVGQVKEFFLARQPILDQNQNLIAYELLFRRAGVRAPVSAEDTRGAASIIAHTSELGIENVTGSALGFFNVNSTLLMGDLVNFLPAEKVVFEFPQTDKITPELVRRVAELAKAGYRFALDDVITLSEYIKPLLPFVEIIKIDTSVMTYADLAMLVRQFKQARKVLLADKVETLEQFQNCHELGFDYYQGYYFAKPALLSGKKLATSQLAIMELMTLVARDADTIEIEQRIKKEVSLCLSLLRLVNTPAMGVTKSIHSLSEALMVLGRRQLQRWLQIQIYVGPDPQIQFGSPLLLLAATRGKLLELVAQKLQPANRSMADIAFTVGILSLLDALFGQHMERILRQIVLSEEITEALLYRTGFYGDLLKLAEYLEKPGEAGRLLVPLLARLGLPIEELYPFQLEAFEWSNSLLPTL | not soluble
11 | MGSDKIHHHHHHMILKHRRPNIYGLMNKEGNKEEVEMIINELLNRDYKITFLPSGSSAVFLSMWIAKIYSNEISIPDMGGWQGFLKFPKLLNLKNNMIETNLGIIDLEKLDESLKENSSLILTSLAGYLAPQPLKEIKKLCEEREVLFIEDISGKIGGDCGYGDIVVCSTGTPKILNCEYGGFLGISKEIEEKLGNALNDIKILSKTYKTINYFGLLKEELLNAKKTYKKYVEASKIIKDEIENAYFREFEGISVFIECDNPKNISKKINSLIKLDNRKSITTICPNYDRILKNGIVFETKKIDISELNREVINEIIIALSSIL | not soluble
12 | MGSDKIHHHHHHMIMNNHRMLPDQDAWEPWSPAELSRRLSGISRPWCIVGGWALDLWHGSTMREHDDLEFTVLREDLEIFRRELSEMEFYTVNDGVLERLPPDRQPASEIFQIWCFDRTAKCWRVDMMIEPGTDDTWAYKRNPEITRPRTDMVALTADGIPYLNPSAVLLFKAKHRRPKDEQDFVNAHPKLLLSERRWLRNCLELLHPGHEWAQAL | not soluble
13 | MGSDKIHHHHHHMIMSEKSIVQEARDIQLAMELINLGARLQMLESETQLSRGRLIRLYKELRGSPPPKGMLPFSTDWFMTWEQNIHASMFCNAWQFLLKTGLCSGVDAVIKAYRLYLEQCPQPPEGPLLALTRAWTLVRFVESGLLELSSCNCCGGNFITHAHQPVGSFACSLCQPPSRAVKRRKLSRDAADIIPQLLDEQIEQAV | not soluble
14 | MGSDKIHHHHHHMINCIIVEDAPLAVDKLKNFISKVPLLDLAGTFDNGLDAFDFLQSNTIDLLFLDIQMEQFTGLQLLQALHTRPHIIIVSAYGEYAVQGFEYDVTDYLLKPYSFERFLKAVNKVQTEMASNPPAQPLPKDYIFLKTEYRMVRINLCDILYIEGKGAYLHVITDTTRIMTLLSFKEIESLLPAKQFIRIHKSYLIAINKIDNIERNVVKIANMRIPIGKSYLKDFYLRLQ | not soluble
15 | MGSDKIHHHHHHMINELKKTKSRSEIKREQILHSAIELFCVQGFPNTSMDEVAKLAGVSKQTVYAHFGSKDDLFVAAIESRCIAHQLTGDLLFDPKHPEVSIMRFSQQFGEMIVSHETMAVFKTCVAQAESHPELPRLFFNAGPKHVLGLLSGFLQLVDKQGGYHFPKPHDSAIRLCLMLFGELKLRLELGLEVEELRLSRDAYIEETAQMFLRAHRV | not soluble
16 | MGSDKIHHHHHHMINHHPKFELIQAFVNGDLPASLSAGIAIHADMCPVCQQTIAQFTEQVAENSFEEEYLDRFIIDDNEALEAIATIDFDHMIDNIVESSDIAVVVPKVEKTVSFNDTTYTLPAALNSMEMGKHAQIGKLTRARIQLNENEIHSSLLHIQPGGGVPEHTHKGFELTVLLAGSFHDESGEYVKGDFIMLDSSHQHHPISSNGCLCYTVANDALHFTHGINKLLNPIGSFIY | not soluble
17 | MGSDKIHHHHHHMIPLEHRYAQIEKAITYIDENFRAHPSVDEIAQNVGMSKYHFIRVFKEYAGVTPKQFLHCVTLNYAKEHIKESRSILESSLDIGLSSSSRLHELFVNLIGVTPREWRERGRGVLVTYGFGQTPFGEALIGFTDKGICYLGLMSDNKLEILGRFYELWGEAILEYDEKAAQKYLGYIFDRGEEGSPWNLGTNSQVNAWKALINLSRHLEDRVEGLIPCCGIISRSGAMSGHRWRIERGAALSLLDDIREKGSFGFSDNIDL | not soluble
18 | MGSDKIHHHHHHMIQSVRIKNFKNFKNTKIDGFTKLNIITGQNNAGKSNLLEALYYLVGKSMHPCTNVLEIYDNIRKEPLTSESKSLMFYGLDTKEEIQIVTTLDNNQTLDLQIKFIASENQKVIESQIIPTAEQTQMSSQLNFTLKKNNEEIYNDHLNIAKVPNFPPIPNQSGYNRQFKNFDSNQLQKLLPFESAVIIPSDVVYRQAHMIQAVSKICSNNQLEEELNKHLNQFDNNIQAISFNTNNQLKLKVKDIKEKVPLSVFGDGLKKYLHIVSAFMADNAKTIYIDEVENGLHFSRMRLLLKNTIDFINNNKDGNLQVFMTTHSQEFIEILDQVIREKDFAHQTKLFCLKQDDQYVIPRTYYGENLEYYFENEENLFG | not soluble
19 | MGSDKIHHHHHHMIVNQANLQGIYKSFNTIFNQAFDAAPSQWPLVAMQVPSTGRSVDYKWLGDFPMMREWLGDRVLKDLSAFKYEITNKDYESTIEVDRNDIDDDQIGVYTPMIQGLAQAAKVHPDILVFALLKAGFDTGCFDGQYFFDSDHSVNGASVSNTGGGDGTPWYLLDLSRPIKPIVLQIRKRPQFVAMDKPDDENVFMRKKFRYGVDDRKNVGYGLWQLAYGSKQTLDATNYAAARAAMMAFTNDEGVPLGITPTHLVVPPTLESNGRTVVEAQFDANGASNVWYNTAKLVVVPWLA | not soluble
20 | MGSDKIHHHHHHMIVVLKPGSTEEDIRKVVKLAESYNLKCHISKGQERTVIGIIGDDRYVVADKFESLDCVESVVRVLKPYKLVSREFHPEDTVIDLGDVKIGNGYFTIIAGPCSVEGREMLMETAHFLSELGVKVLRGGAYKPRTSPYSFQGLGEKGLEYLREAADKYGMYVVTEALGEDDLPKVAEYADIIQIGARNAQNFRLLSKAGSYNKPVLLKRGFMNTIEEFLLSAEYIANSGNTKIILCERGIRTFEKATRNTLDISAVPIIRKESHLPILVDPSHSGGRRDLVIPLSRAAIAVGAHGIIVEVHPEPEKALSDGKQSLDFELFKELVQEMKKLADALGVKVN | soluble
